This passage reports interaction score results from PMC10397247.

One experiment concerns the target T1, 4H607-bN.
T1 chain: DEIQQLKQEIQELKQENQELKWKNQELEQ
Briefly: two-hybrid library CCNG1.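 Note: natural log of median RNA to DNA barcode read ratio; higher means stronger binding.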

The target in another experiment is T2, 4H908-bN.
T2 chain: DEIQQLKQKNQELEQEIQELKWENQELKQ
Briefly: two-hybrid library CCNG1.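 Note: natural log of median RNA to DNA barcode read ratio; higher means stronger binding.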

For a further experiment, the target named is T3, 4H754-bN.
T3 chain: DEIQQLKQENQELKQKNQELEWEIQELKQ
Nature of the experiment: two-hybrid library CCNG1.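 Note: natural log of median RNA to DNA barcode read ratio; higher means stronger binding.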

The target in another experiment is T4, 4H967-bN.
T4 chain: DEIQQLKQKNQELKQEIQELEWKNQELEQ
Briefly: two-hybrid library CCNG1.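 Note: natural log of median RNA to DNA barcode read ratio; higher means stronger binding.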

Another experiment has as its target T5, 4H797-bN.
T5 chain: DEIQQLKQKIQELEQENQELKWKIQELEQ
Briefly: two-hybrid library CCNG1.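 Note: natural log of median RNA to DNA barcode read ratio; higher means stronger binding.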

The target in the next experiment is T6, 4H4001-bN.
T6 chain: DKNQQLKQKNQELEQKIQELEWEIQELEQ
Nature of the experiment: two-hybrid library CCNG1.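 Note: natural log of median RNA to DNA barcode read ratio; higher means stronger binding.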

The target in a further experiment is T7, 4H717-bN.
T7 chain: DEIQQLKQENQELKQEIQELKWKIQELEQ
Briefly: two-hybrid library CCNG1.

Another experiment addresses T8, 4H72-bN.
T8 chain: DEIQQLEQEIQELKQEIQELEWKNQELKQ
Briefly: two-hybrid library CCNG1.

A further experiment has as its target T9, 4H568-bN.
T9 chain: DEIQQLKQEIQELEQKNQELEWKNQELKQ
Briefly: two-hybrid library CCNG1.

A further experiment deals with T10, 4H457-bN.
T10 chain: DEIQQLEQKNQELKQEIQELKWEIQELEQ
Nature of the experiment: two-hybrid library CCNG1.

Another experiment addresses T11, 4H883-bN.
T11 chain: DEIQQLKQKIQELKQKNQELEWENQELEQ
Nature of the experiment: two-hybrid library CCNG1.

In another experiment the target is T12, 4H462-bN.
T12 chain: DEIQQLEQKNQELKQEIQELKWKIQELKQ
Nature of the experiment: two-hybrid library CCNG1.

For the next experiment, the target named is T13, P6A-bS.
T13 chain: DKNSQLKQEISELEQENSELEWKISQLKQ
Briefly: two-hybrid library CCNG1.

Another experiment deals with T14, 4H953-bN.
T14 chain: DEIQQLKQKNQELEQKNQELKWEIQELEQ
Nature of the experiment: two-hybrid library CCNG1.

The next experiment deals with T15, 4H454-bN.
T15 chain: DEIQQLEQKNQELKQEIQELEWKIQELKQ
Nature of the experiment: two-hybrid library CCNG1.

A further experiment addresses T16, 4H918-bN.
T16 chain: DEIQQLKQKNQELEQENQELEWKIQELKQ
Briefly: two-hybrid library CCNG1.

The next experiment addresses T17, 4H687-bN.
T17 chain: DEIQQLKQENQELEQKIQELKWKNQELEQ
Nature of the experiment: two-hybrid library CCNG1.

A further experiment deals with T18, 4H3905-AA.
T18 chain: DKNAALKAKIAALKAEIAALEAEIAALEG
Nature of the experiment: two-hybrid library CCmax. Conditions: mean of both orientations.

For a further experiment, the target named is T19, 4H43-AA.
T19 chain: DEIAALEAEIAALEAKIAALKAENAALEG
Briefly: two-hybrid library CCmax.

Another experiment concerns the target T20, 4H_APH.
T20 chain: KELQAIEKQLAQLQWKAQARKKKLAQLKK
Nature of the experiment: two-hybrid library CCmax. Conditions: mean of both orientations.

The target in another experiment is GCN2_T. Nature of the experiment: two-hybrid library CCmax.
A further experiment has as its target T21, 4H2736-AA.
T21 chain: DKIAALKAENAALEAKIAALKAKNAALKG
Briefly: two-hybrid library CCmax.

The next experiment addresses T22, 4H384-AA.
T22 chain: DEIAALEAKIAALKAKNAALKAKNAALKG
Nature of the experiment: two-hybrid library CCmax. Conditions: mean of both orientations.

The next experiment has as its target T23, 4H4038-AA.
T23 chain: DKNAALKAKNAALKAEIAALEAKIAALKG
Nature of the experiment: two-hybrid library CCmax. Conditions: mean of both orientations.

For a further experiment, the target named is T24, 4H337-AA.
T24 chain: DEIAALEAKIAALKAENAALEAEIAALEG
Nature of the experiment: two-hybrid library CCmax. To be noted: mean of both orientations.

The target of another experiment is T25, O14-AA.
T25 chain: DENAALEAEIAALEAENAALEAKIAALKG
Nature of the experiment: two-hybrid library CCmax. To be noted: mean of both orientations.

Another experiment deals with T26, 4H3049-AA.
T26 chain: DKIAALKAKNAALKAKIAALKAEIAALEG
Nature of the experiment: two-hybrid library CCmax. Conditions: mean of both orientations.

Another experiment addresses T27, 4H2888-AA.
T27 chain: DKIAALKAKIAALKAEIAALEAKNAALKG
Briefly: two-hybrid library CCmax. Conditions: mean of both orientations.

For a further experiment, the target named is 4H_GCN4. Nature of the experiment: two-hybrid library CCmax. Conditions: mean of both orientations.
A further experiment concerns the target T28, 4H3625-AA.
T28 chain: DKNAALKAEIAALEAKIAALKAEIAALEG
Nature of the experiment: two-hybrid library CCmax. To be noted: mean of both orientations.

Another experiment has as its target T29, 4H3587-AA.
T29 chain: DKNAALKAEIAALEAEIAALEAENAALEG
Nature of the experiment: two-hybrid library CCmax. To be noted: mean of both orientations.

Another experiment deals with T30, 4H3590-AA.
T30 chain: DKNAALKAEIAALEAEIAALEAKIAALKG
Nature of the experiment: two-hybrid library CCmax. Conditions: mean of both orientations.

In the next experiment the target is T31, 4H451-AA.
T31 chain: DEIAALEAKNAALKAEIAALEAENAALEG
Briefly: two-hybrid library CCmax. To be noted: mean of both orientations.

A further experiment addresses T32, 4H_BCR.
T32 chain: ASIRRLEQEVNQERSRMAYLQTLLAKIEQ
Nature of the experiment: two-hybrid library CCmax. Conditions: mean of both orientations.

The target of the next experiment is T33, O11-AA.
T33 chain: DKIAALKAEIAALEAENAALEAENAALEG
Briefly: two-hybrid library CCmax. To be noted: mean of both orientations.

In a further experiment the target is T34, 4H510-AA.
T34 chain: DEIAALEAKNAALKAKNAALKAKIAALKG
Briefly: two-hybrid library CCmax. Conditions: mean of both orientations.

Another experiment addresses T35, O13-AA.
T35 chain: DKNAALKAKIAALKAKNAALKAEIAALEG
Nature of the experiment: two-hybrid library CCmax. Conditions: mean of both orientations.

For a further experiment, the target named is T36, APC2237-AA.
T36 chain: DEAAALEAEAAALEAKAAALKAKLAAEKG
Nature of the experiment: two-hybrid library CCmax. To be noted: mean of both orientations.

The next experiment has as its target T37, APC2405-AA.
T37 chain: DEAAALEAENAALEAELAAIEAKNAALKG
Briefly: two-hybrid library CCmax. Conditions: mean of both orientations.

A further experiment has as its target T38, APC4011-AA.
T38 chain: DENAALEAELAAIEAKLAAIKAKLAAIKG
Nature of the experiment: two-hybrid library CCmax. To be noted: mean of both orientations.

For another experiment, the target named is T39, APC8910-AA.
T39 chain: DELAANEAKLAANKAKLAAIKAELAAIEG
Briefly: two-hybrid library CCmax. To be noted: mean of both orientations.

The target in the next experiment is T40, APC232-AA.
T40 chain: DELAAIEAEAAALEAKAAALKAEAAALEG
Nature of the experiment: two-hybrid library CCmax. Conditions: mean of both orientations.

The target in another experiment is T41, APC4264-AA.
T41 chain: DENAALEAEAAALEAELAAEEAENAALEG
Nature of the experiment: two-hybrid library CCmax. To be noted: mean of both orientations.

The target of another experiment is T42, APC1434-AA.
T42 chain: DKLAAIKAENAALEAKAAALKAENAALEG
Nature of the experiment: two-hybrid library CCmax. To be noted: mean of both orientations.

Another experiment addresses T43, APC7099-AA.
T43 chain: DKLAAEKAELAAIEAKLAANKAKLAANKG
Nature of the experiment: two-hybrid library CCmax. Conditions: mean of both orientations.

The next experiment has as its target T44, 4H733-AA.
T44 chain: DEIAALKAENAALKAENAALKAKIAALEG
Nature of the experiment: two-hybrid library CCmax.

Another experiment addresses T45, APC4436-AA.
T45 chain: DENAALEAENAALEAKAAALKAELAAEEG
Nature of the experiment: two-hybrid library CCmax. Conditions: mean of both orientations.

Another experiment deals with T46, APC6108-AA.
T46 chain: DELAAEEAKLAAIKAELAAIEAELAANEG
Briefly: two-hybrid library CCmax. Conditions: mean of both orientations.

The next experiment addresses T47, 4H807-AA.
T47 chain: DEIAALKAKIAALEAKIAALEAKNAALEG
Briefly: two-hybrid library CCmax. To be noted: mean of both orientations.

Another experiment deals with T48, APC9319-AA.
T48 chain: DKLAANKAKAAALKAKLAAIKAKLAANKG
Nature of the experiment: two-hybrid library CCmax. Conditions: mean of both orientations.

The next experiment addresses T49, APC8191-AA.
T49 chain: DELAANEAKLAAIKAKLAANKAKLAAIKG
Briefly: two-hybrid library CCmax. Conditions: mean of both orientations.

A further experiment addresses T50, APC1015-AA.
T50 chain: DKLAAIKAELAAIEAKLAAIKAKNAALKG
Nature of the experiment: two-hybrid library CCmax. To be noted: mean of both orientations.

For a further experiment, the target named is T51, APC5383-AA.
T51 chain: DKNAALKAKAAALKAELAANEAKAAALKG
Nature of the experiment: two-hybrid library CCmax. To be noted: mean of both orientations.

The next experiment concerns the target T52, APC3645-AA.
T52 chain: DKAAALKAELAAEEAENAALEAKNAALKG
Nature of the experiment: two-hybrid library CCmax. Conditions: mean of both orientations.

Another experiment deals with T53, APC9096-AA.
T53 chain: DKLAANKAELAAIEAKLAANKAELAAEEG
Nature of the experiment: two-hybrid library CCmax. To be noted: mean of both orientations.

Sequence of 4H_GCN4 (chain, as listed by the source): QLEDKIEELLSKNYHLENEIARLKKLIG

For DKNQQLKQKNQELEQKIQELEWEIQELEQ [4H4001-bN], the interaction score with 4H607-bN was -1.46; with 4H908-bN, -1.27; with 4H754-bN, -1.75; with 4H967-bN it was -2.32; in the experiment with 4H797-bN, -1.1; in the experiment with 4H4001-bN, -0.804. In addition, the interaction score is -1.63 with 4H717-bN; -1.03 with 4H72-bN; -2.33 with 4H568-bN; -0.688 with 4H457-bN; -0.641 in the experiment with 4H883-bN; -0.667 with 4H462-bN. Also, the interaction score with P6A-bS is -2.58; with 4H953-bN, -1.5; in the experiment with 4H454-bN, 0.0134; with 4H918-bN it was -0.935; with 4H687-bN it was -1.77.
Consider DKIAALKAENAALEAKIAALKAKNAALKG [4H2736-AA], for which the interaction score in the experiment with 4H3905-AA was -1.18; with 4H43-AA it was -0.422; in the experiment with 4H_APH it was -1.33; with GCN2_T, -0.66; with 4H2736-AA, -1.62; in the experiment with 4H384-AA, -1.67. For the same molecule, the interaction score with 4H4038-AA is -0.154; in the experiment with 4H337-AA, -0.315; with O14-AA it was -0.38; in the experiment with 4H3049-AA, 0.275; with 4H2888-AA, -0.685; with 4H_GCN4, -2.46. For the same molecule, the interaction score with 4H3625-AA is 0.218; with 4H3587-AA, -1.26; with 4H3590-AA it was -0.712; with 4H451-AA it was 0.882; with 4H_BCR, -1.69; with O11-AA, -0.615. The interaction score with 4H510-AA was -1.15; with O13-AA, 0.351.
With DEIAALKAENAALKAENAALKAKIAALEG [4H733-AA], the interaction score with APC2237-AA was -1.41; with APC2405-AA it was -1.28; with APC4011-AA, -1.54; with APC8910-AA, -1.37; with APC232-AA it was -1.82; with APC4264-AA it was -1.83. The interaction score is -1.75 with APC1434-AA; -1.67 with APC7099-AA; 2.16 in the experiment with 4H733-AA; -1.66 with APC4436-AA; -1.39 with APC6108-AA; -1.53 with 4H807-AA. The interaction score with APC9319-AA was -2.02; in the experiment with APC8191-AA it was -1.19; with APC1015-AA it was -1.46; with APC5383-AA, -2.26; with APC3645-AA, -1.25; with APC9096-AA it was -1.46.
